# Reference: patent publication US20180311359A1 (TRACON PHARMACEUTICALS, published 2018)
# T1: CD105 (endoglin) (UniProt P17813 26-586, limits assumed)
# T1 construct: Soluble protein captured on the plate
# T1 sequence (looked up): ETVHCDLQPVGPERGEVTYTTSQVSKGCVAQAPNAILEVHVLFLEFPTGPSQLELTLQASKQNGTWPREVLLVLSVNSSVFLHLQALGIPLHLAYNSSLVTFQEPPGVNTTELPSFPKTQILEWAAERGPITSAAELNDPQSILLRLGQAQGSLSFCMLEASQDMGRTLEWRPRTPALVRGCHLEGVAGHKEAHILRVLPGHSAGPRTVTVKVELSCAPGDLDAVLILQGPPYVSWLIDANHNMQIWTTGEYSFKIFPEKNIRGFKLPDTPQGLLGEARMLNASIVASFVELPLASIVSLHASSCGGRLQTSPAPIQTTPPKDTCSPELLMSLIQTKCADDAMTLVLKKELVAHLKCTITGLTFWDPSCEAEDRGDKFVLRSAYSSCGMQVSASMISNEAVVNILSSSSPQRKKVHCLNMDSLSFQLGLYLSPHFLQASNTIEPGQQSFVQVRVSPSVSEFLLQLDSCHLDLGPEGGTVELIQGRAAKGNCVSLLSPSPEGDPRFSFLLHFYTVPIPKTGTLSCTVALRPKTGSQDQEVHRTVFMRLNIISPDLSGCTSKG
# B1: TRC105 (an anti-CD105 antibody) (antibody, human IgG1, kappa, V domains shown)
# VH: EVKLEESGGGLVQPGGSMKLSCAASGFTFSDAWMDWVRQSPEKGLEWVAEIRSKASNHATYYAESVKGRFTISRDDSKSSVYLQMNSLRAEDTGIYYCTRWRRFFDSWGQGTTLTVSS
# VL: QIVLSQSPAILSASPGEKVTMTCRASSSVSYMHWYQQKPGSSPKPWIYATSNLASGVPVRFSGSGSGTSYSLTISRVEAEDAATYYCQQWSSNPLTFGAGTKLELKR
# notes: each chain is built here as variable plus constant region; The same antibody was tested in different formulations and after different storage times; also called Lot FIN-0536
# Columns and labels:
# CD105 (endoglin) [1] = molecular target: T1, CD105 (endoglin); test: CD105 binding ELISA; F03 (pH 4.0, 20 mM acetate, 240 mM sorbitol, 25 mg/ml), 5 C, initial
# CD105 (endoglin) [2] = molecular target: T1, CD105 (endoglin); test: CD105 binding ELISA; F05 (pH 4.0, 20 mM acetate, 240 mM trehalose, 50 mg/ml), 5 C, initial
# CD105 (endoglin) [3] = molecular target: T1, CD105 (endoglin); test: CD105 binding ELISA; F02 (pH 5.5, 20 mM histidine, 240 mM sorbitol, 25 mg/ml), 5 C, initial
# CD105 (endoglin) [4] = molecular target: T1, CD105 (endoglin); test: CD105 binding ELISA; F03 (pH 4.0, 20 mM acetate, 240 mM sorbitol, 25 mg/ml), 5 C, 12 months
# CD105 (endoglin) [5] = molecular target: T1, CD105 (endoglin); test: CD105 binding ELISA; F07 (pH 4.0, 20 mM acetate, 240 mM trehalose, 100 mg/ml), 5 C, initial
# CD105 (endoglin) [6] = molecular target: T1, CD105 (endoglin); test: CD105 binding ELISA; F01 (pH 5.5, 20 mM histidine, 240 mM trehalose, 25 mg/ml), 5 C, initial
# CD105 (endoglin) [7] = molecular target: T1, CD105 (endoglin); test: CD105 binding ELISA; F02 (pH 5.5, 20 mM histidine, 240 mM sorbitol, 25 mg/ml), 5 C, 6 months
# CD105 (endoglin) [8] = molecular target: T1, CD105 (endoglin); test: CD105 binding ELISA; F04 (pH 5.5, 20 mM histidine, 240 mM trehalose, 50 mg/ml), 5 C, initial
# CD105 (endoglin) [9] = molecular target: T1, CD105 (endoglin); test: CD105 binding ELISA; F05 (pH 4.0, 20 mM acetate, 240 mM trehalose, 50 mg/ml), 5 C, 12 months
# CD105 (endoglin) [10] = molecular target: T1, CD105 (endoglin); test: CD105 binding ELISA; F01 (pH 5.5, 20 mM histidine, 240 mM trehalose, 25 mg/ml), 5 C, 6 months
# CD105 (endoglin) [11] = molecular target: T1, CD105 (endoglin); test: CD105 binding ELISA; F02 (pH 5.5, 20 mM histidine, 240 mM sorbitol, 25 mg/ml), 5 C, 12 months
# CD105 (endoglin) [12] = molecular target: T1, CD105 (endoglin); test: CD105 binding ELISA; F04 (pH 5.5, 20 mM histidine, 240 mM trehalose, 50 mg/ml), 5 C, 6 months
# CD105 (endoglin) [13] = molecular target: T1, CD105 (endoglin); test: CD105 binding ELISA; F06 (pH 5.5, 20 mM histidine, 240 mM trehalose, 100 mg/ml), 5 C, initial
# CD105 (endoglin) [14] = molecular target: T1, CD105 (endoglin); test: CD105 binding ELISA; F07 (pH 4.0, 20 mM acetate, 240 mM trehalose, 100 mg/ml), 5 C, 12 months
# CD105 (endoglin) [15] = molecular target: T1, CD105 (endoglin); test: CD105 binding ELISA; F01 (pH 5.5, 20 mM histidine, 240 mM trehalose, 25 mg/ml), 5 C, 12 months
# CD105 (endoglin) [16] = molecular target: T1, CD105 (endoglin); test: CD105 binding ELISA; F04 (pH 5.5, 20 mM histidine, 240 mM trehalose, 50 mg/ml), 5 C, 12 months
# CD105 (endoglin) [17] = molecular target: T1, CD105 (endoglin); test: CD105 binding ELISA; F06 (pH 5.5, 20 mM histidine, 240 mM trehalose, 100 mg/ml), 5 C, 6 months
# CD105 (endoglin) [18] = molecular target: T1, CD105 (endoglin); test: CD105 binding ELISA; F06 (pH 5.5, 20 mM histidine, 240 mM trehalose, 100 mg/ml), 5 C, 12 months
# CD105 (endoglin) [19] = molecular target: T1, CD105 (endoglin); test: CD105 binding ELISA; TRC105 4 mg/mL in 17 mM phosphate, 145 mM NaCl, pH 7.2 (Lot FIN-0536), 2-8 C, initial
# CD105 (endoglin) [20] = molecular target: T1, CD105 (endoglin); test: CD105 binding ELISA; TRC105 4 mg/mL in 17 mM phosphate, 145 mM NaCl, pH 7.2 (Lot FIN-0536), 2-8 C, 6 months
# CD105 (endoglin) [21] = molecular target: T1, CD105 (endoglin); test: CD105 binding ELISA; TRC105 4 mg/mL in 17 mM phosphate, 145 mM NaCl, pH 7.2 (Lot FIN-0536), 2-8 C, 9 months
# CD105 (endoglin) [22] = molecular target: T1, CD105 (endoglin); test: CD105 binding ELISA; TRC105 4 mg/mL in 17 mM phosphate, 145 mM NaCl, pH 7.2 (Lot FIN-0536), 2-8 C, 12 months
# CD105 (endoglin) [23] = molecular target: T1, CD105 (endoglin); test: CD105 binding ELISA; TRC105 4 mg/mL in 17 mM phosphate, 145 mM NaCl, pH 7.2 (Lot FIN-0536), 2-8 C, 18 months
# CD105 (endoglin) [24] = molecular target: T1, CD105 (endoglin); test: CD105 binding ELISA; TRC105 4 mg/mL in 17 mM phosphate, 145 mM NaCl, pH 7.2 (Lot FIN-0536), 2-8 C, 24 months
# CD105 (endoglin) [25] = molecular target: T1, CD105 (endoglin); test: CD105 binding ELISA; TRC105 4 mg/mL in 17 mM phosphate, 145 mM NaCl, pH 7.2 (Lot FIN-0536), 2-8 C, 30 months
# CD105 (endoglin) [26] = molecular target: T1, CD105 (endoglin); test: CD105 binding ELISA; TRC105 4 mg/mL in 17 mM phosphate, 145 mM NaCl, pH 7.2 (Lot FIN-0536), 2-8 C, 36 months
# CD105 (endoglin) [27] = molecular target: T1, CD105 (endoglin); test: CD105 binding ELISA; TRC105 4 mg/mL in 17 mM phosphate, 145 mM NaCl, pH 7.2 (Lot FIN-0536), 25 C/60% RH, 1 month
# CD105 (endoglin) [28] = molecular target: T1, CD105 (endoglin); test: CD105 binding ELISA; TRC105 4 mg/mL in 17 mM phosphate, 145 mM NaCl, pH 7.2 (Lot FIN-0536), 25 C/60% RH study, initial (same initial value as in Table 18)
binder,measurement,setting,value
B1,Percent Relative CD105 Binding Potency,CD105 (endoglin) [1],124 % relative to reference standard
same,Percent Relative CD105 Binding Potency,CD105 (endoglin) [2],179 % relative to reference standard
same,Percent Relative CD105 Binding Potency,CD105 (endoglin) [3],90 % relative to reference standard
same,Percent Relative CD105 Binding Potency,CD105 (endoglin) [4],77 % relative to reference standard
same,Percent Relative CD105 Binding Potency,CD105 (endoglin) [5],100 % relative to reference standard
same,Percent Relative CD105 Binding Potency,CD105 (endoglin) [6],101 % relative to reference standard
same,Percent Relative CD105 Binding Potency,CD105 (endoglin) [7],90 % relative to reference standard
same,Percent Relative CD105 Binding Potency,CD105 (endoglin) [8],123 % relative to reference standard
same,Percent Relative CD105 Binding Potency,CD105 (endoglin) [9],96 % relative to reference standard
same,Percent Relative CD105 Binding Potency,CD105 (endoglin) [10],94 % relative to reference standard
same,Percent Relative CD105 Binding Potency,CD105 (endoglin) [11],69 % relative to reference standard
same,Percent Relative CD105 Binding Potency,CD105 (endoglin) [12],97 % relative to reference standard
same,Percent Relative CD105 Binding Potency,CD105 (endoglin) [13],93 % relative to reference standard
same,Percent Relative CD105 Binding Potency,CD105 (endoglin) [14],86 % relative to reference standard
same,Percent Relative CD105 Binding Potency,CD105 (endoglin) [15],68 % relative to reference standard
same,Percent Relative CD105 Binding Potency,CD105 (endoglin) [16],74 % relative to reference standard
same,Percent Relative CD105 Binding Potency,CD105 (endoglin) [17],95 % relative to reference standard
same,Percent Relative CD105 Binding Potency,CD105 (endoglin) [18],115 % relative to reference standard
same,CD105 Binding by ELISA (binding activity relative to reference standard),CD105 (endoglin) [19],88 % relative to reference standard
same,CD105 Binding by ELISA (binding activity relative to reference standard),CD105 (endoglin) [20],110 % relative to reference standard
same,CD105 Binding by ELISA (binding activity relative to reference standard),CD105 (endoglin) [21],104 % relative to reference standard
same,CD105 Binding by ELISA (binding activity relative to reference standard),CD105 (endoglin) [22],91 % relative to reference standard
same,CD105 Binding by ELISA (binding activity relative to reference standard),CD105 (endoglin) [23],88 % relative to reference standard
same,CD105 Binding by ELISA (binding activity relative to reference standard),CD105 (endoglin) [24],136 % relative to reference standard
same,CD105 Binding by ELISA (binding activity relative to reference standard),CD105 (endoglin) [25],88 % relative to reference standard
same,CD105 Binding by ELISA (binding activity relative to reference standard),CD105 (endoglin) [26],105 % relative to reference standard
same,CD105 Binding by ELISA (binding activity relative to reference standard),CD105 (endoglin) [27],91 % relative to reference standard
same,CD105 Binding by ELISA (binding activity relative to reference standard),CD105 (endoglin) [28],88 % relative to reference standard
